Experimental data: PMC6195595, “Structure-based redesign of docking domain interactions modulates the product spectrum of a rhabdopeptide-synthesizing NRPS” (Nature Communications, 2018)

T1: Kj12B N-terminal docking domain (Xenorhabdus stockiae KJ12.1)
T1 construct: also called Kj12B-NDD; source: E. coli BL21-Gold(DE3), purified (HisTrap, Ulp1 cleavage, anion exchange, SEC)
T1 chain: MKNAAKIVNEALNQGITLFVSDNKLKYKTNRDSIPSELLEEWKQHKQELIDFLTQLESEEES

T2: Kj12A N-terminal docking domain (Xenorhabdus stockiae KJ12.1)
T2 construct: also called Kj12A-NDD; source: E. coli BL21-Gold(DE3), purified (HisTrap, Ulp1 cleavage, anion exchange, SEC)
T2 chain: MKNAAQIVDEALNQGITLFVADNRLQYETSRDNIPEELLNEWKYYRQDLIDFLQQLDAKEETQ

B1: Kj12C N-terminal docking domain (domain or fragment)
chain: MIDAAQIVDEALEQGITLFVVNNRLQYETSRDSIPTELLNKWKQHKQELIDFLNQLDSEEQTK
notes: Kj12C of Xenorhabdus stockiae KJ12.1, N-terminal docking domain, 63 residues; 15N-labelled for the NMR titrations; also called Kj12C-NDD; source: E. coli BL21-Gold(DE3), purified (HisTrap, Ulp1 cleavage, anion exchange, SEC); not shown: His6-SUMO, N-terminal, cleaved

Columns and labels:
Assay in all cases: ITC; 50 µM NDD (or Kj12C construct) in the cell titrated with 1 mM CDD peptide; 20 °C; 50 mM sodium phosphate pH 6.5, 100 mM NaCl; one site binding model; three independent titrations
Conditions in all cases: both partners purified
[1] = molecular target: B1
[2] = molecular target: B1
[3] = molecular target: T3, Kj12B-CDDshort R1565E peptide (Xenorhabdus stockiae KJ12.1, R1565E (stands in the printed letters))
T3 construct: source: synthetic peptide (Fmoc solid-phase synthesis, preparative HPLC)

[4] = molecular target: T1, Kj12B N-terminal docking domain
[5] = molecular target: T2, Kj12A N-terminal docking domain

| Binder | stoichiometry N [1] | Kd [2] | also measured |
| --- | --- | --- | --- |
| QEYLRGEI (source: synthetic peptide (Fmoc solid-phase synthesis, preparative HPLC)) [Kj12B-CDDshort peptide] | 1.05 ± 0.11 sites |  |  |
| QEYLRAEI (source: synthetic peptide (Fmoc solid-phase synthesis, preparative HPLC)) [Kj12B-CDDshort G1566A peptide] |  | > 100 µM |  |
| B1 |  |  | Kd [3]: > 100 µM |
| QEYARGEI (source: synthetic peptide (Fmoc solid-phase synthesis, preparative HPLC)) [Kj12B-CDDshort L1564A peptide] |  | > 100 µM |  |
| LLKEKRKHFQAEQNSSQEYLRGEI (also called Kj12B-CDD; source: synthetic peptide, bought: JPT Peptides Technologies GmbH) [Kj12B C-terminal docking domain peptide] | 0.9 ± 0.12 sites |  | stoichiometry N [4]: 1 sites; stoichiometry N [5]: 0.81 ± 0.01 sites |
